Assay results taken from the Immune Epitope Database (IEDB).

Columns and labels:
HLA-A*33:01 = test: IEDB peptide-MHC binding, purified MHC/competitive/radioactivity; filed as Kd, often an IC50 or EC50 that approximates it; ≥ and ≤ were set here for values at or beyond the usual limits of such assays; conditions: source organism: SARS coronavirus Tor2
HLA-A*68:01 = test: as above; conditions: source organism: SARS coronavirus Tor2
HLA-A*31:01 [1] = test: as above; conditions: source organism: SARS coronavirus Tor2
HLA-B*58:01 = test: IEDB peptide-MHC binding, purified MHC/direct/fluorescence; filed as Kd, often an IC50 or EC50 that approximates it; ≥ and ≤ were set here for values at or beyond the usual limits of such assays
HLA-A*26:01 = test: as above
HLA-B*15:01 = test: as above
HLA-A*69:01 = test: as above
HLA-A*02:01 [2] = test: as above
HLA-B*46:01 = test: IEDB peptide-MHC binding, purified MHC/competitive/fluorescence; filed as Kd, often an IC50 or EC50 that approximates it; ≥ and ≤ were set here for values at or beyond the usual limits of such assays
HLA-B*54:01 = test: IEDB peptide-MHC binding, purified MHC/competitive/radioactivity; filed as Kd, often an IC50 or EC50 that approximates it; ≥ and ≤ were set here for values at or beyond the usual limits of such assays
HLA-B*07:02 [3] = test: as above
HLA-B*53:01 = test: as above
HLA-B*51:01 [4] = test: as above
HLA-B*35:01 = test: as above
HLA-B*44:03 = test: as above; conditions: source organism: Mammarenavirus lassaense
HLA-A*02:02 = test: as above; conditions: source organism: Trypanosoma cruzi
HLA-A*68:02 = test: as above; conditions: source organism: Trypanosoma cruzi
HLA-A*02:06 = test: as above; conditions: source organism: Trypanosoma cruzi
HLA-A*02:03 = test: as above; conditions: source organism: Trypanosoma cruzi
HLA-A*02:01 [5] = test: as above; conditions: source organism: Trypanosoma cruzi
HLA-A*01:01 = test: IEDB peptide-MHC binding, purified MHC/direct/fluorescence; filed as Kd, often an IC50 or EC50 that approximates it; ≥ and ≤ were set here for values at or beyond the usual limits of such assays; conditions: source organism: Vibrio cholerae
HLA-A*03:01 = test: as above; conditions: source organism: Vibrio cholerae
HLA-B*27:05 = test: as above
HLA-B*07:02 [6] = test: as above; conditions: source organism: Vibrio cholerae
HLA-A*11:01 = test: as above; conditions: source organism: Vibrio cholerae
HLA-B*08:01 = test: as above; conditions: source organism: Vibrio cholerae
HLA-B*44:02 = test: as above; conditions: source organism: Vibrio cholerae
HLA-B*40:01 = test: as above; conditions: source organism: Vibrio cholerae
HLA-A*31:01 [7] = test: as above; conditions: source organism: Vibrio cholerae
HLA-B*51:01 [8] = test: IEDB peptide-MHC binding, purified MHC/competitive/fluorescence; filed as Kd, often an IC50 or EC50 that approximates it; ≥ and ≤ were set here for values at or beyond the usual limits of such assays; conditions: source organism: Campylobacter jejuni subsp. jejuni NCTC 11168 = ATCC 700819
[9] = source organism: SARS coronavirus Tor2
[10] = source organism: Mammarenavirus lassaense
[11] = source organism: Vaccinia virus WR
[12] = source organism: Triticum aestivum
[13] = source organism: Vibrio cholerae
[14] = source organism: Salmonella enterica subsp. enterica serovar Typhimurium

## YIFFASFYY
HLA-A*33:01
  Kd: 641 nM
HLA-A*68:01
  Kd: 1.7 nM
HLA-A*31:01 [1]
  Kd: 784 nM
HLA-B*58:01; source organism: SARS-CoV1
  Kd: 3120 nM
HLA-A*26:01; source organism: SARS-CoV1
  Kd: 527 nM
HLA-B*15:01; source organism: SARS-CoV1
  Kd: 3710 nM
HLA-A*69:01; source organism: SARS-CoV1
  Kd: 738 nM
HLA-A*02:01 [2]; source organism: SARS-CoV1
  Kd: 6820 nM
HLA-B*46:01; source organism: SARS-CoV1
  Kd: ≥ 20000 nM

## MPICMDVRAI
HLA-B*54:01; [9]
  Kd: 3.96 nM
HLA-B*07:02 [3]; [9]
  Kd: 300 nM
HLA-B*53:01; [9]
  Kd: 5.98 nM
HLA-B*51:01 [4]; [9]
  Kd: 2.24 nM
HLA-B*35:01; [9]
  Kd: 94.8 nM

## CPNSYDSIM
HLA-B*54:01; [10]
  Kd: 1590 nM
HLA-B*07:02 [3]; [10]
  Kd: 142 nM
HLA-B*53:01; [10]
  Kd: 41.9 nM
HLA-B*51:01 [4]; [10]
  Kd: 2270 nM
HLA-B*35:01; [10]
  Kd: 8.12 nM
HLA-B*44:03
  Kd: 7570 nM

## SPYYIRKESY
HLA-B*54:01; [11]
  Kd: 669 nM
HLA-B*07:02 [3]; [11]
  Kd: 65.4 nM
HLA-B*53:01; [11]
  Kd: 646 nM
HLA-B*51:01 [4]; [11]
  Kd: ≥ 69600 nM
HLA-B*35:01; [11]
  Kd: 101 nM

## KPVDTSNSF
HLA-B*54:01; [9]
  Kd: 5770 nM
HLA-B*07:02 [3]; [9]
  Kd: 20.7 nM
HLA-B*53:01; [9]
  Kd: 151 nM
HLA-B*51:01 [4]; [9]
  Kd: 898 nM
HLA-B*35:01; [9]
  Kd: 266 nM

## LPAMCNVY
HLA-B*54:01; [12]
  Kd: 2820 nM
HLA-B*07:02 [3]; [12]
  Kd: ≥ 21200 nM
HLA-B*53:01; [12]
  Kd: 1070 nM
HLA-B*51:01 [4]; [12]
  Kd: 5760 nM
HLA-B*35:01; [12]
  Kd: 41.3 nM

## FPSIFSTEV
HLA-B*54:01; [10]
  Kd: 4.42 nM
HLA-B*07:02 [3]; [10]
  Kd: 244 nM
HLA-B*53:01; [10]
  Kd: 57.3 nM
HLA-B*51:01 [4]; [10]
  Kd: 330 nM
HLA-B*35:01; [10]
  Kd: 97.7 nM

## GLLPLLLLLL
HLA-A*02:02
  Kd: 89.6 nM
HLA-A*68:02
  Kd: ≥ 28200 nM
HLA-A*02:06
  Kd: 16.5 nM
HLA-A*02:03
  Kd: 89.3 nM
HLA-A*02:01 [5]
  Kd: 66 nM

## MPTYKHLIMF
HLA-B*54:01; [11]
  Kd: 23.6 nM
HLA-B*07:02 [3]; [11]
  Kd: 21.8 nM
HLA-B*53:01; [11]
  Kd: 18 nM
HLA-B*51:01 [4]; [11]
  Kd: 843 nM
HLA-B*35:01; [11]
  Kd: 20.6 nM

## YPEYNRAVKF
HLA-B*54:01; [11]
  Kd: 473 nM
HLA-B*07:02 [3]; [11]
  Kd: 122 nM
HLA-B*53:01; [11]
  Kd: 41.7 nM
HLA-B*51:01 [4]; [11]
  Kd: 857 nM
HLA-B*35:01; [11]
  Kd: 808 nM

## AEIDRSFKP
HLA-B*58:01; [13]
  Kd: ≥ 20000 nM
HLA-A*26:01; [13]
  Kd: ≥ 20000 nM
HLA-A*01:01
  Kd: ≥ 20000 nM
HLA-A*03:01
  Kd: ≥ 20000 nM
HLA-B*27:05; [13]
  Kd: ≥ 20000 nM
HLA-B*07:02 [6]
  Kd: ≥ 20000 nM
HLA-A*11:01
  Kd: ≥ 20000 nM
HLA-B*08:01
  Kd: ≥ 20000 nM
HLA-B*44:02
  Kd: ≥ 20000 nM
HLA-B*40:01
  Kd: 1510 nM
HLA-B*15:01; [13]
  Kd: ≥ 20000 nM
HLA-A*69:01; [13]
  Kd: ≥ 20000 nM
HLA-A*31:01 [7]
  Kd: ≥ 20000 nM
HLA-A*02:01 [2]; [13]
  Kd: ≥ 20000 nM

## LSILPFFIV
HLA-B*51:01 [8]
  Kd: ≥ 20000 nM

## YQKKNASVY
HLA-B*27:05; [14]
  Kd: 5060 nM
HLA-B*15:01; [14]
  Kd: 330 nM
HLA-B*46:01; source organism: Salmonella enterica subsp. enterica serovar Typhi
  Kd: 293 nM
